Experimental data from paper PMC8778164, “Towards Complete Tumor Resection: Novel Dual-Modality Probes for Improved Image-Guided Surgery of GRPR-Expressing Prostate Cancer” (Pharmaceutics, 2022).

Tests used:
GRPR = molecular target: T1, GRPR (Homo sapiens, UniProt P30550); assay: Competition binding assay against [111In]In-NeoB on PC-3 cells; details: IC50 of compound over IC50 of NeoB
T1 construct: host or cells: PC-3 cells (human prostate adenocarcinoma)
Protocol: GRPR-positive human-derived prostate adenocarcinoma epithelial PC-3 cells (ATCC, Manassas, VA, USA) were cultured in Ham’s F-12K (Kaighn’s) Medium (Gibco, Paisley, UK) supplemented with 10% fetal bovine serum, penicillin (100 units/mL) and streptomycin (100 µg/mL). Cells were routinely passaged and grown in tissue culture flasks at 37 °C in a humidified atmosphere with 5% CO2.
The affinity of all six probes for GRPR was determined using a competition binding assay. PC-3 cells were seeded in 12-well plates (2.5 × 10^5 cells/well) one day prior to the experiment. The next day, cells were washed with warm Dulbecco’s phosphate-buffered saline (PBS) (Gibco). Subsequently, cells were incubated for 1 h at 37 °C with 0.5 mL incubation medium (Ham’s F-12K, 20 mM HEPES, 1% BSA, pH 7.4) containing 10^−9 M [^111In]In-NeoB, in the presence or absence of increasing concentrations (10^−12 to 10^−6 M) of one of the six unlabeled probes or NeoB (positive control). After incubation, the medium was removed and cells were washed twice with cold PBS. To determine the amount of activity that was taken up by the cells, cells were lysed using 1 M NaOH for > 20 min at rt, then collected and measured in a γ-counter. To determine the amount of radioactivity added per well, samples of the incubation medium containing 10^−9 M [^111In]In-NeoB were also measured. The results are expressed as the percentage of added dose (%AD) and were normalized to the uptake of [^111In]In-NeoB (in the absence of cold compound). Data represent the mean ± standard deviation (SD) of triplicate wells.
Statistical analysis was performed using GraphPad Prism version 5.01 (GraphPad Software Inc., San Diego, CA, USA). The half-maximal inhibitory concentration (IC50) values were estimated by the log (inhibitor) vs. the normalized response fitting routine. To compare the uptake values of the two probes studied in vivo, an unpaired t-test was used with the significance levels set at 5%. The results are represented as mean ± standard deviation (SD).

[1] = Stability in PBS at 37 °C (iTLC); assay type: physicochemical; details: intact labeled ligand after incubation at 37 °C in PBS, n = 1
Protocol: (§1) Stability in PBS was determined by incubating 20 µL of the labeled compounds (∼11 MBq) in PBS (80 µL) at 37 °C. Radiochemical purity was determined by iTLC at 30 min, 1 h, 2 h and 4 h. Stability in the serum was carried out by adding 70 µL of the labeled compound (∼35 MBq) to 330 µL of mouse serum (Merck, Haarlerbergweg, The Netherlands). The mixture was incubated at 37 °C. At different time points (30 min, 1 h, 2 h and 4 h), an aliquot of the mixture (50 µL) was added to 50 µL ACN. The vial was vortexed and centrifuged at 10,000 rpm for 20 min and the supernatant was analyzed by iTLC.

[2] = Stability in mouse serum at 37 °C (iTLC); assay type: in vitro ADME; details: for Stability in Mouse Serum (%) 30 min / Stability in Mouse Serum (%) 1 h / Stability in Mouse Serum (%) 2 h / Stability in Mouse Serum (%) 4 h: intact labeled ligand after incubation at 37 °C in mouse serum, n = 1
Protocol: as §1

[3] = Distribution coefficient (LogD7.4), shake-flask method; assay type: physicochemical; details: n-octanol/PBS pH 7.4, n = 3; read-out: Log D7.4
Protocol: Distribution coefficients (LogD7.4) for the ^111In-labeled compounds were determined by a shake-flask method. The experiments were performed in triplicate for each radioligand. A sample containing the radioligand (0.5–2.0 MBq) was dissolved in 1 mL solution of phosphate-buffered saline (0.01 M, pH 7.4) and n-octanol (v:v = 1:1). The vials were vortexed vigorously and then centrifuged at 10,000 rpm for 3 min, for phase separation. Samples (10 μL) of each phase were taken out and analyzed using a gamma counter. LogD7.4 values were calculated, using the following equation: LogD7.4 = log {(counts in n-octanol phase)/(counts in PBS phase)}.

T1 sequence (P30550 whole entry): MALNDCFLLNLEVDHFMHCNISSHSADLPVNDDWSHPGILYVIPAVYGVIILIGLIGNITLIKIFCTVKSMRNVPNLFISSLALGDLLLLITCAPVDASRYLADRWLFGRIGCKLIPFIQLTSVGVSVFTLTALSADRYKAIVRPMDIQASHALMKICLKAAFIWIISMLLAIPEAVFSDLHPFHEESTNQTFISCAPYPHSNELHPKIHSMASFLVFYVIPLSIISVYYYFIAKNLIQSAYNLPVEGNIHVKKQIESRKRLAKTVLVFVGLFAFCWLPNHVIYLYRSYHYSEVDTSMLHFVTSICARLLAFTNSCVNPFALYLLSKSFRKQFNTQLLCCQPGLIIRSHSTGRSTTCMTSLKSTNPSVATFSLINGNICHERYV

## CC(C)CC(CC(C)C)NC(=O)[C@H](Cc1c[nH]cn1)NC(=O)CNC(=O)[C@@H](NC(=O)[C@H](C)NC(=O)[C@H](Cc1c[nH]c2ccccc12)NC(=O)[C@H](CCC(N)=O)NC(=O)[C@@H](Cc1ccccc1)NC(=O)CCOCCOCCOCCOCCNC(=O)[C@H](CCCCNC(=O)OC1CCCC2C=NN=C(c3ccc(CNC(=O)CCCCC[N+]4=C(/C=C/C=C/C=C5N(C)c6ccc(S(=O)(=O)O)cc6C5(C)C)C(C)(C)c5cc(S(=O)(=O)[O-])ccc54)cc3)C2CC1)NC(=O)CN1CCN(CC(=O)O)CCN(CC(=O)O)CCN(CC(=O)O)CC1)C(C)C (some centres unmarked) [Compound 15]
GRPR
  Ratio Compound/NeoB (IC50): 11.2

## CC(C)CC(CC(C)C)NC(=O)[C@H](Cc1c[nH]cn1)NC(=O)CNC(=O)[C@@H](NC(=O)[C@H](C)NC(=O)[C@H](Cc1c[nH]c2ccccc12)NC(=O)[C@H](CCC(N)=O)NC(=O)[C@@H](Cc1ccccc1)NC(=O)COCC(=O)Nc1ccc(CNC(=O)[C@H](CCCCNC(=O)OC2CCCC3C=NN=C(c4ccc(CNC(=O)CCCCC[N+]5=C(/C=C/C=C/C=C6N(C)c7ccc(S(=O)(=O)O)cc7C6(C)C)C(C)(C)c6cc(S(=O)(=O)[O-])ccc65)cc4)C3CC2)NC(=O)CN2CCN(CC(=O)O)CCN(CC(=O)O)CCN(CC(=O)O)CC2)cc1)C(C)C (some centres unmarked) [Compound 14]
GRPR
  Ratio Compound/NeoB (IC50): 24.6

## CC(C)CC(CC(C)C)NC(=O)[C@H](Cc1c[nH]cn1)NC(=O)CNC(=O)[C@@H](NC(=O)[C@H](C)NC(=O)[C@H](Cc1c[nH]c2ccccc12)NC(=O)[C@H](CCC(N)=O)NC(=O)[C@@H](Cc1ccccc1)NC(=O)CCOCCOCCOCCOCCNC(=O)[C@H](CCCCNC(=O)CCOCCOCCOCCOCCNC(=O)OC1CCCC2C=NN=C(c3ccc(CNC(=O)CCCCC[N+]4=C(/C=C/C=C/C=C5N(C)c6ccc(S(=O)(=O)O)cc6C5(C)C)C(C)(C)c5cc(S(=O)(=O)[O-])ccc54)cc3)C2CC1)NC(=O)CN1CCN(CC(=O)O)CCN(CC(=O)O)CCN(CC(=O)O)CC1)C(C)C (some centres unmarked) [[^111In]In-13, metal not drawn]
[1]
  Stability in PBS (%) 30 min: 87.4%
  Stability in PBS (%) 1 h: 87.5%
  Stability in PBS (%) 2 h: 86.2%
  Stability in PBS (%) 4 h: 84.4%
[2]
  Stability in Mouse Serum (%) 30 min: 98.1%
  Stability in Mouse Serum (%) 1 h: 97.9%
  Stability in Mouse Serum (%) 2 h: 97.6%
[2]; 4 h
  Stability in Mouse Serum (%) 4 h: 97.3%
[2]; mouse serum, 4 h
  Protein-Bound Fraction at 4 h (%): 5.6%
[3]
  logD: -1.8 ± 0.01

## CC(C)CC(CC(C)C)NC(=O)[C@H](Cc1c[nH]cn1)NC(=O)CNC(=O)[C@@H](NC(=O)[C@H](C)NC(=O)[C@H](Cc1c[nH]c2ccccc12)NC(=O)[C@H](CCC(N)=O)NC(=O)[C@@H](Cc1ccccc1)NC(=O)COCC(=O)Nc1ccc(CNC(=O)OC2CCCC3C=NN=C(c4ccc(CNC(=O)CCCCC[N+]5=C(/C=C/C=C/C=C6N(C)c7ccc(S(=O)(=O)O)cc7C6(C)C)C(C)(C)c6cc(S(=O)(=O)[O-])ccc65)cc4)C3CC2)cc1)C(C)C (some centres unmarked) [Compound 10]
GRPR
  Ratio Compound/NeoB (IC50): 12.9

## CC(C)CC(CC(C)C)NC(=O)[C@H](Cc1c[nH]cn1)NC(=O)CNC(=O)[C@@H](NC(=O)[C@H](C)NC(=O)[C@H](Cc1c[nH]c2ccccc12)NC(=O)[C@H](CCC(N)=O)NC(=O)[C@@H](Cc1ccccc1)NC(=O)CCOCCOCCOCCOCCNC(=O)OC1CCCC2C=NN=C(c3ccc(CNC(=O)CCCCC[N+]4=C(/C=C/C=C/C=C5N(C)c6ccc(S(=O)(=O)O)cc6C5(C)C)C(C)(C)c5cc(S(=O)(=O)[O-])ccc54)cc3)C2CC1)C(C)C (some centres unmarked) [Compound 11]
GRPR
  Ratio Compound/NeoB (IC50): 4.5

## CC(C)CC(CC(C)C)NC(=O)[C@H](Cc1c[nH]cn1)NC(=O)CNC(=O)[C@@H](NC(=O)[C@H](C)NC(=O)[C@H](Cc1c[nH]c2ccccc12)NC(=O)[C@H](CCC(N)=O)NC(=O)[C@@H](Cc1ccccc1)NC(=O)CCOCCOCCOCCOCCNC(=O)[C@H](CCCCNC(=O)CCOCCOCCOCCOCCNC(=O)OC1CCCC2C=NN=C(c3ccc(CNC(=O)CCCCC[N+]4=C(/C=C/C=C/C=C5N(C)c6ccc(S(=O)(=O)O)cc6C5(C)C)C(C)(C)c5cc(S(=O)(=O)[O-])ccc54)cc3)C2CC1)NC(=O)CN1CCN(CC(=O)O)CCN(CC(=O)O)CCN(CC(=O)O)CC1)C(C)C (some centres unmarked) [Compound 13]
GRPR
  Ratio Compound/NeoB (IC50): 18.2

## CC(C)CC(CC(C)C)NC(=O)[C@H](Cc1c[nH]cn1)NC(=O)CNC(=O)[C@@H](NC(=O)[C@H](C)NC(=O)[C@H](Cc1c[nH]c2ccccc12)NC(=O)[C@H](CCC(N)=O)NC(=O)[C@@H](Cc1ccccc1)NC(=O)COCC(=O)Nc1ccc(CNC(=O)[C@H](CCCCNC(=O)OC2CCCC3C=NN=C(c4ccc(CNC(=O)CCCCC[N+]5=C(/C=C/C=C/C=C6N(C)c7ccc(S(=O)(=O)O)cc7C6(C)C)C(C)(C)c6cc(S(=O)(=O)[O-])ccc65)cc4)C3CC2)NC(=O)CN2CCN(CC(=O)O)CCN(CC(=O)O)CCN(CC(=O)O)CC2)cc1)C(C)C (some centres unmarked) [[^111In]In-14, metal not drawn]
[1]
  Stability in PBS (%) 30 min: 74.2%
  Stability in PBS (%) 1 h: 48.5%
  Stability in PBS (%) 2 h: 30.9%
  Stability in PBS (%) 4 h: 33.7%
[2]
  Stability in Mouse Serum (%) 30 min: 94.6%
  Stability in Mouse Serum (%) 1 h: 94.1%
  Stability in Mouse Serum (%) 2 h: 94.0%
[2]; 4 h
  Stability in Mouse Serum (%) 4 h: 94.1%
[2]; mouse serum, 4 h, read-out: Protein-Bound Fraction at 4 h (%) (converted)
  fraction unbound at 4 h: 0.929
[3]
  logD: -1.52 ± 0.1

## CC(C)CC(CC(C)C)NC(=O)[C@H](Cc1c[nH]cn1)NC(=O)CNC(=O)[C@@H](NC(=O)[C@H](C)NC(=O)[C@H](Cc1c[nH]c2ccccc12)NC(=O)[C@H](CCC(N)=O)NC(=O)[C@@H](Cc1ccccc1)NC(=O)COCC(=O)Nc1ccc(CNC(=O)[C@H](CCCCNC(=O)CCOCCOCCOCCOCCNC(=O)OC2CCCC3C=NN=C(c4ccc(CNC(=O)CCCCC[N+]5=C(/C=C/C=C/C=C6N(C)c7ccc(S(=O)(=O)O)cc7C6(C)C)C(C)(C)c6cc(S(=O)(=O)[O-])ccc65)cc4)C3CC2)NC(=O)CN2CCN(CC(=O)O)CCN(CC(=O)O)CCN(CC(=O)O)CC2)cc1)C(C)C (some centres unmarked) [Compound 12]
GRPR
  Ratio Compound/NeoB (IC50): 9.1
